According to publication PMC4940161, “Time-resolved studies define the nature of toxic IAPP intermediates, providing insight for anti-amyloidosis therapeutics” (eLife, 2016):
Like-named read-outs stand apart in the source and are kept apart here. Blank lines part the entries; values can stand above or below the substance they belong to. Positions of bridges follow the written chain, without caps; N, C: chain ends. No end group written: not given here.

Legend:
[1] = Amyloid formation kinetics (thioflavin-T binding, TEM); type: physicochemical; details: 20 mM Tris HCl pH 7.4, 25°C; for Amyloid formation: thioflavin-T binding and TEM, 20 µM peptide (3xL-IAPP 40 µM), I26P-IAPP over 35+ h
Protocol: (§1) Synthetic amyloidogenic and non-amyloidogenic IAPP peptides were dissolved in 1,1,1,3,3,3-Hexafluoro-2-propanol (HFIP) for 5–12 h, aliquoted and lyophilized to a dry powder. Amyloid formation was initiated by dissolving dry HFIP-treated peptides in 20 mM Tris HCl buffer (time-zero) at pH 7.4. Samples were incubated at 25°C, unless indicated otherwise. Aliquots were removed from the peptide solutions at designated time points over the course of amyloid formation or aggregation as schematically depicted in Figure 2A. The kinetic species populated within each of the three phases of amyloid formation were concurrently characterized by biophysical methods and biological assays assessing changes in metabolism, oxidative stress, inflammation and apoptosis using INS-1 β-cells and murine pancreatic islets.
Aliquots (100 μL) were removed from amyloid formation and aggregation assays at different time points, and added to 96-well plates containing 8 μL of a 1 mM thioflavin-T solution. Fluorescence was measured using a Beckman Coulter DTX880 plate reader (445 nm excitation and 485 nm emission). Final solution conditions contained […] and 74 µM thioflavin-T (pH 7.4).
Aliquots (4 µL) were removed from amyloid formation or aggregation assays at different time points and placed on a carbon-coated 200-mesh copper grid and negatively stained with saturated uranyl acetate. The samples were imaged with a Philips CM12 or a FEI BioTwinG2 transmission electron microscope.

rat INS-1 β-cells [2] = experiment: Alamar Blue reduction β-cell viability assay; type: cell-based; details: for Toxicity to β-cells over the time course of aggregation: 20 μM peptide solutions, 14 μM final on cells, aliquots at different time points
Protocol: Rat INS-1 β-cells (832/13) were generously provided by Professor Newgard (Duke University). β-cells were grown in RPMI 1640 supplemented with 10% fetal bovine serum (FBS), 11 mM glucose, 10 mM Hepes, 2 mM L-glutamine, 1 mM sodium pyruvate, 50 µM β-mercaptoethanol, 100 U/ml penicillin, and 100 U/ml streptomycin.
as §1
Rat INS-1 β-cells were seeded at a density of 30,000 cells per well in 96-well plates 12–16 h prior to start of experiments. Hand purified islets were seeded at a density of 25–30 islets per well in 96-well plates. Amyloid formation and aggregation assays were initiated by dissolving IAPP peptides (15 μM to 80 μM stock solutions for dose-response experiments) in 20 mM Tris HCl (pH 7.4), unless stated otherwise. Peptide solutions were incubated at 25°C, or as indicated. Aliquots were removed from amyloid formation and aggregation assays at different time points and applied exogenously to rat INS-1 β-cells (5 h incubation) or murine pancreatic islets (10 h incubation). β-cells and islets were photographed by light microscopy immediately before and after toxicity experiments to assess changes in morphology. The final range of peptide concentrations examined in β-cell and islet toxicity assays after diluting IAPP peptide solutions into cell or islet culture was 10.5 μM to 56 μM in dose-response studies, unless indicated otherwise. Cell viability was measured by Alamar Blue reduction assays, which detect changes in metabolic function, and by morphological changes detected by light microscopy. Alamar Blue was diluted ten-fold in culture medium and incubated on β-cells or islets for 5 h at 37°C. Fluorescence (530 nm excitation and 590 nm emission) was measured with a Beckman Coulter DTX880 plate reader. Values were calculated relative to control β-cells or islets treated with buffer alone. Toxicity was defined as <80% viability. Light microscopy images were captured using an Olympus BX-61 light microscope.

[3] = Photochemical induced cross-linking / SDS-PAGE oligomer distribution; type: physicochemical; details: 20 µM peptide, 20 mM Tris HCl pH 7.4, 25°C, at time points of h-IAPP toxicity, supernatant after 20,000 g 20 min, Tris(bipyridyl)Ru(II) cross-linking, silver stain
Protocol: Samples were cross-linked using Tris(bipyridyl)Ru(II), in the presence of ammonium persulfate. IAPP peptides were incubated for indicated times in 20 mM Tris HCl (pH 7.4) at 25°C. Aliquots were removed at indicated time points, centrifuged at 20,000 g for 20 min and added to the cross-linking solution. Samples contained a final concentration of 20 µM peptide, 70 µM Tris(bipyridyl)Ru(II) and 1.4 mM ammonium persulfate. Samples were illuminated with a 150 W incandescent bulb for 5 s, unless otherwise noted. The reaction was quenched by the addition of β-mercaptoethanol. The products were separated by SDS polyacrylamide gel electrophoresis using a 10–20% Tris-tricine gradient gel. Oligomer bands were visualized by silver staining (SilverXpress, Invitrogen). Quantitative analysis was carried out using GelAnalyzer software version 2010a. The relative intensity of each band was calculated by first correcting the baseline, then integrating the area under each peak.

rat INS-1 β-cells [4] = details: ref Wang et al., 2014b; cited from earlier work
From the text: (§2) IAPP is expressed by all mammals examined to date; the amino acid sequences are ~80% conserved between species, however not all IAPP sequences are toxic or form amyloid in vivo (Figure 5—figure supplement 1) ([Betsholtz et al., 1989]; [Cao et al., 2013b]; [Westermark et al., 1990]).

[5] = ref Wang et al., 2014b; cited from earlier work
From the text: as §2

[6] = Solubility assay by ultracentrifugation; type: physicochemical; details: 20,000 g for 20 min; UV absorbance at 215 nm
Protocol: Samples of toxic lag phase intermediates or amyloid fibrils were ultracentrifuged for 20 min (20,000 g) and the protein in the soluble fraction (the supernatant) was measured by UV absorbance (215 nm) before and after ultracentrifugation using a DU 730 Life Science UV/Vis spectrophotometer (Beckman Coulter).

[7] = aliquots from peptide in 20 mM Tris HCl pH 7.4, 25°C, 14 μM (h-IAPP) or 28 μM (3xL-IAPP) final, 5 h on cells, toxicity defined as <80% viability
[8] = 1:1 addition to h-IAPP (40 µM each)

Substance: 3xL-IAPP: triple mutant of h-IAPP that lacks aromatic residues (KCNTATCATQRLANLLVHSSNNLGAILSSTNVGSNTL; ends and bridges not checked; cysteine pairing not given here; UniProt P10997 34-70, looked up, variant F15L F23L Y37L)
Amyloid formation [1]: form amyloid more slowly than the human peptide
β-cell viability at time point of maximum toxicity (rat INS-1 β-cells [2]; 40 μM peptide solution (28 μM final on cells), Alamar Blue, 5 h on INS-1 β-cells, relative to buffer treated cells, mean, three replicate experiments): 67%
Toxicity of amyloid fibrils (saturation phase) to β-cells (rat INS-1 β-cells [2]; [7]): not toxic
Toxicity of lag phase intermediates to β-cells (rat INS-1 β-cells [2]; [7]): clearly still toxic

Effect on T50 of h-IAPP amyloid formation (time to 50% of total thioflavin-T signal change) [1, 8]: increased by a factor of two
Effect on length of h-IAPP lag phase (time to 10% of total thioflavin-T signal change) [1, 8]: increased by a factor of two
Substance: I26P-IAPP: I26P point mutant of h-IAPP; inhibitor of h-IAPP amyloid formation (KCNTATCATQRLANFLVHSSNNFGAPLSSTNVGSNTY-NH2; disulfide 2-7; ends not checked; UniProt P10997 34-70, looked up, variant I26P)
Distribution of oligomers in solution [3]: low order oligomers
Amyloid formation [1]: non-amyloidogenic
Toxicity to β-cells over the time course of aggregation (rat INS-1 β-cells [2]; Alamar Blue, 5 h on cells): not toxic at any time point
Effect on duration of h-IAPP cytotoxicity (rat INS-1 β-cells [2]; 1:1 addition to h-IAPP, 80 µM total peptide, 56 µM final on cells, time-resolved Alamar Blue): increases the duration of toxicity proportionally

Substance: TM-IAPP: H18R, G24P, I26P triple mutant of h-IAPP (KCNTATCATQRLANFLVRSSNNFPAPLSSTNVGSNTY-NH2; disulfide 2-7; ends not checked; UniProt P10997 34-70, looked up, variant H18R G24P I26P)
Toxicity (rat INS-1 β-cells [4]): non-toxic
Amyloid formation [5]: non-amyloidogenic
Distribution of oligomers in solution [3]: oligomerizes

Substance: human islet amyloid polypeptide
upper limit of β-sheet content: < 15%

Substance: r-IAPP: non-toxic, non-amyloidogenic rat IAPP, negative control [reference compound]
Solubility under ultracentrifugation conditions (control) [6]: soluble
Distribution of oligomers in solution [3]: monomers to hexamers
Amyloid formation [1]: does not form amyloid fibrils
Toxicity to β-cells over the time course of aggregation (rat INS-1 β-cells [2]; Alamar Blue, 5 h on cells): not toxic at any time point
Toxicity to β-cells, dose-response (rat INS-1 β-cells [2]; 28, 56 and 84 µM peptide prepared directly in cell culture medium, 24, 48 or 96 h on cells, Alamar Blue): No detectable toxicity
Toxicity over extended time course (rat INS-1 β-cells [2]; 28 day time course, data not shown): not toxic over a 28 day time course
